# Patent publication US20220280633A1
# Tested on: T1, fluorogenic substrate (R&D systems, cat no ES007), peptide YVADAPK between a 7-methoxycoumarin (Mca) group and a 2,4-dinitrophenyl (Dnp) group
# T1 sequence: YVADAPK
substance,measurement,value
commercial ACE-2 from Sino Biological (cat no 10108H08H20),enzymatic activity assay using a fluorogenic substrate,All four samples appeared to have similar levels of activity
